Assay [1] has as its target T1, FZD7 receptor expressed on cells (full-length) (UniProt O75084 33-574, limits assumed).
T1 construct: whole, on cells; MDA MB 231 cells may carry other Frizzled receptors too; also called full-length FZD7 receptor; endogenous receptor on MDA MB 231 cells
As to the kind of experiment: flow cytometry, 200 nM Fab, FZD7 over-expression line (MDA MB 231). The protocol:
(§1) FIG. 3 is a table depicting the binding of the purified Fabs to cells expressing FZD7 (flow cytometry). Small scale Fabs were assayed for binding to full-length FZD7 receptor to an over-expression line in MDA MB 231 cells. In parallel, Fabs were assayed for binding to endogenous receptor expressed on the MDA MB 231 cells. Cells were harvested using an EDTA solution, blocked in 2% FBS/PBS (stain buffer), and stained with 200 nM Fab for 30 min on ice. Cells were washed two times with stain buffer and incubated with anti-F(ab′)₂-APC secondary antibody (Jackson Immuno) at 1:1000 for 15 minutes on ice. All antibodies were diluted in stain buffer. Cells were washed three times with stain buffer and then fixed with 1% paraformaldehye for analysis by flow cytometry. […] The percent of the cell population within the positive gates is indicated.

Assay [2] concerns the target T2, recombinant Frizzled receptor 7 (FZD7) cysteine-rich domain (CRD) fused to the Fc region of human IgG (human, UniProt O75084 33-185). As to the kind of experiment: ELISA, 1ug/ml (20nM) Fab. As to the method:
(§2) FIG. 2B is a table depicting the binding of purified Fabs to purified FZD7-Fc measured by ELISA. Fabs purified from 25 ml bacterial cultures were assayed for binding to FZD7-Fc fusion protein (R&D systems) and Fc protein. ELISA plates (384 well) were coated with 2 ug/ml of protein in PBS overnight at four degrees. Wells were blocked with 0.5% BSA/PBS for 1 hour at room temperature, washed three times with 0.05% Tween20/PBS (wash buffer), and then primary dilutions of Fabs in 0.5% BSA/0.05% Tween20/PBS (dilution buffer) were added at indicated concentrations. Fabs were incubated for 1 hour at room temperature, wells were washed six times, and anti-FLAG-HRP (Sigma) was added at 1:5000 in dilution buffer. Secondary antibody was incubated for 45 minutes at room temperature, and wells were washed six times and developed with TMB substrate with an acid stop. The absorbance at 450 nm was read. n.t.=not tested.
(In general: In an ELISA, binding on a coated surface is turned into a signal by an enzyme label.)

For assay [3], the target named is T3, Fc control protein.
T3 construct: also called Fc protein; control Fc protein
Put plainly: ELISA, 1ug/ml (20nM) Fab. The protocol:
as §2

The target of assay [4] is T1, FZD7 receptor expressed on cells …. As to the kind of experiment: flow cytometry, 200 nM Fab, MDA MB 231. As to the method: as §1
(In general: A flow cytometer gives signals particle by particle.)

In assay [5] the target is T2, recombinant Frizzled receptor 7 (FZD7) …. As to the kind of experiment: ELISA, 10ug/ml (200nM) Fab. As to the method: as §2
The target in assay [6] is T3, Fc control protein. As to the kind of experiment: ELISA, 10ug/ml (200nM) Fab. As to the method: as §2

Changes are numbered by the printed parent chain.

B1: F12 (Fab)
light: DIQMTQSPSSLSASVGDRVTITCRASQSVSSAVAWYQQKPGKAPKLLIYSASSLYSGVPSRFSGSRSGTDFTLTISSLQPEDFATYYCQQAYAPFTFGQGTKVEIKRTVAAPSVFIFPPSDSQLKSGTASVVCLLNNFYPREAKVQWKVDNALQSGNSQESVTEQDSKDSTYSLSSTLTLSKADYEKHKVYACEVTHQGLSSPVTKSFNRGECGGS
heavy: EVQLVESGGGLVQPGGSLRLSCAASGFNISYSYMHWVRQAPGKGLEWVASIYSSYSYTSYADSVKGRFTISADTSKNTAYLQMNSLRAEDTAVYYCARSSAWFGHAGFGGAMDYWGQGTLVTVSSASTKGPSVFPLAPSSKSTSGGTAALGCLVKDYFPEPVTVSWNSGALTSGVHTFPAVLQSSGLYSLSSVVTVPSSSLGTQTYICNVNHKPSNTKVDKKVEPKSC
notes: selection round 2; also called Fzd7-R2-F12
Consider B1, for which the “% population within the positive gate” value in assay [1] was found to be 59.9%; in assay [4], 1.4%. Besides, the “OD 450” value in assay [2] worked out at 1.05; with Fc control protein [3] it was 0.08; in assay [5] it was 3.11; in the assay with Fc control protein [6], 0.06.

B2: C10 (Fab)
light: DIQMTQSPSSLSASVGDRVTITCRASQSVSSAVAWYQQKPGKAPKLLIYSASSLYSGVPSRFSGSRSGTDFTLTISSLQPEDFATYYCQQSAWWASLFTFGQGTKVEIKRTVAAPSVFIFPPSDSQLKSGTASVVCLLNNFYPREAKVQWKVDNALQSGNSQESVTEQDSKDSTYSLSSTLTLSKADYEKHKVYACEVTHQGLSSPVTKSFNRGECGGS
heavy: EVQLVESGGGLVQPGGSLRLSCAASGFNISSYSIHWVRQAPGKGLEWVASIYPYSSYTYYADSVKGRFTISADTSKNTAYLQMNSLRAEDTAVYYCARYSGFAMDYWGQGTLVTVSSASTKGPSVFPLAPSSKSTSGGTAALGCLVKDYFPEPVTVSWNSGALTSGVHTFPAVLQSSGLYSLSSVVTVPSSSLGTQTYICNVNHKPSNTKVDKKVEPKSC
notes: selection round 2; also called Fzd7-R2-C10
As for B2, the “% population within the positive gate” value came out at 50.5% in assay [1] and 0.9% in assay [4]. In addition, the “OD 450” value in assay [2] worked out at 0.37; with Fc control protein [3], 0.07; in assay [5], 2.05; with Fc control protein [6], 0.06.

B3: F9 (Fab)
light: B2 light with S91W, A92Y, W93Y, W94G, A95W, S96H, F98I
heavy: B2 heavy with S31Y, Y32S, Y54S, S55Y, S56G, S100G, G101Y, A103G
notes: selection round 2; also called Fzd7-R2-F9
With B3, the “% population within the positive gate” value in assay [1] amounted to 88.3%; in assay [4], 50.3%. Besides, the “OD 450” value in assay [2] worked out at 3.11; in the assay with Fc control protein [3], 0.06; in assay [5] it was 3.16; with Fc control protein [6], 0.06.

B4: E11 (Fab)
light: B2 light with S91Y, A92S, W93Y, W94G, A95Y, S96A
heavy: EVQLVESGGGLVQPGGSLRLSCAASGFNLSSYYMHWVRQAPGKGLEWVASIYPYYSYTYYADSVKGRFTISADTSKNTAYLQMNSLRAEDTAVYYCARYWSGFDYWGQGTLVTVSSASTKGPSVFPLAPSSKSTSGGTAALGCLVKDYFPEPVTVSWNSGALTSGVHTFPAVLQSSGLYSLSSVVTVPSSSLGTQTYICNVNHKPSNTKVDKKVEPKSC
notes: selection round 2; also called Fzd7-R2-E11
As for B4, the figures for the “% population within the positive gate” value in assay [1] and in assay [4] were 94.2% and 99.2%, respectively. The “OD 450” value stood at 3.24 in assay [2], 0.05 with Fc control protein [3], 3.22 in assay [5] and 0.06 with Fc control protein [6].

B5: E5 (Fab)
light: DIQMTQSPSSLSASVGDRVTITCRASQSVSSAVAWYQQKPGKAPKLLIYSASSLYSGVPSRFSGSRSGTDFTLTISSLQPEDFATYYCQQASWYPITFGQGTKVEIKRTVAAPSVFIFPPSDSQLKSGTASVVCLLNNFYPREAKVQWKVDNALQSGNSQESVTEQDSKDSTYSLSSTLTLSKADYEKHKVYACEVTHQGLSSPVTKSFNRGECGGS
heavy: EVQLVESGGGLVQPGGSLRLSCAASGFNIYSSSMHWVRQAPGKGLEWVASIYSSYGYTSYADSVKGRFTISADTSKNTAYLQMNSLRAEDTAVYYCARPGYWGYYWGAYGMDYWGQGTLVTVSSASTKGPSVFPLAPSSKSTSGGTAALGCLVKDYFPEPVTVSWNSGALTSGVHTFPAVLQSSGLYSLSSVVTVPSSSLGTQTYICNVNHKPSNTKVDKKVEPKSC
notes: selection round 2; also called Fzd7-R2-E5
With B5, the “% population within the positive gate” value in assay [1] stood at 86.2%; in assay [4] it was 6.3%. The “OD 450” value is 3.17 in assay [2], 0.07 with Fc control protein [3], 3.17 in assay [5] and 0.06 in the assay with Fc control protein [6].

B6: D7 (Fab)
light: DIQMTQSPSSLSASVGDRVTITCRASQSVSSAVAWYQQKPGKAPKLLIYSASSLYSGVPSRFSGSRSGTDFTLTISSLQPEDFATYYCQQSYVYYLITFGQGTKVEIKRTVAAPSVFIFPPSDSQLKSGTASVVCLLNNFYPREAKVQWKVDNALQSGNSQESVTEQDSKDSTYSLSSTLTLSKADYEKHKVYACEVTHQGLSSPVTKSFNRGECGGS
heavy: EVQLVESGGGLVQPGGSLRLSCAASGFNISYYSMHWVRQAPGKGLEWVAYIYPYSSYTYYADSVKGRFTISADTSKNTAYLQMNSLRAEDTAVYYCARYHGFYGMDYWGQGTLVTVSSASTKGPSVFPLAPSSKSTSGGTAALGCLVKDYFPEPVTVSWNSGALTSGVHTFPAVLQSSGLYSLSSVVTVPSSSLGTQTYICNVNHKPSNTKVDKKVEPKSC
notes: selection round 2; also called Fzd7-R2-D7
With B6, the “% population within the positive gate” value in assay [1] is 75.7%; in assay [4], 1.7%. Besides, the “OD 450” value was 3.22 in assay [2], 0.07 with Fc control protein [3], 3.18 in assay [5] and 0.07 with Fc control protein [6].

B7: G12 (Fab)
light: B6 light with S91W, Y92G, V93Y, Y94G, Y95A
heavy: EVQLVESGGGLVQPGGSLRLSCAASGFNISYSSIHWVRQAPGKGLEWVASIYPSPGYTSYADSVKGRFTISADTSKNTAYLQMNSLRAEDTAVYYCARHGWYGLDYWGQGTLVTVSSASTKGPSVFPLAPSSKSTSGGTAALGCLVKDYFPEPVTVSWNSGALTSGVHTFPAVLQSSGLYSLSSVVTVPSSSLGTQTYICNVNHKPSNTKVDKKVEPKSC
notes: selection round 2; also called Fzd7-R2-G12
On to B7, for which the “% population within the positive gate” value in assay [1] worked out at 83.8%; in assay [4] it was 33.3%. The “OD 450” value in assay [2] came to 3.13; with Fc control protein [3], 0.06; in assay [5] it was 3.19; with Fc control protein [6] it was 0.14.

B8: G1 (Fab)
light: B6 light with S91W, Y92G, V93Y, Y94G, Y95A
heavy: B7 heavy
notes: selection round 2; same four CDRs as Fzd7-R2-G12 (f18); also called Fzd7-R2-G1
On to B8, for which the entries for the “% population within the positive gate” value in assay [1] and in assay [4] were 83.4% and 28.6%, respectively. Further, the “OD 450” value is 3.17 in assay [2], 0.05 with Fc control protein [3], 3.18 in assay [5] and 0.05 with Fc control protein [6].
